Consider 1 molecule from US20180079808A1.

For assay [1], the target named is cynomolgus monkey rIL-13 (cynomolgus monkey) (UniProt Q0PW92).
Assay [2] addresses human IL-13 variant (R130Q) (human) (UniProt P35225).
Assay [3] addresses human IL-13 wild type (human) (UniProt P35225).
Assay [4] addresses human IL-13 variant (R130Q) (human) (UniProt P35225). As to the kind of experiment: column 'Affinity, KD (nM)', hIL-13v; method not given.
Assay [5] addresses human IL-13 wild type (human) (UniProt P35225). As to the kind of experiment: column 'Affinity, KD (nM)', hIL-13wt; method not given.

Sequence of human IL-13 variant (R130Q) (human) (P35225 35-146 limits assumed, stated change not applied): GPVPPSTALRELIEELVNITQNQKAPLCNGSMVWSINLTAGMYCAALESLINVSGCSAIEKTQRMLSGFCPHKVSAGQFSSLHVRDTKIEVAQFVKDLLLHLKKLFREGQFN
Sequence of human IL-13 wild type (human) (P35225 other isoform, or with tags, fused parts or gaps limits assumed): as the sequence (P35225 35-146 limits assumed, stated change not applied) above, with Q110R counted along it
Sequence of cynomolgus monkey rIL-13 (cynomolgus monkey) (Q0PW92 entry or part of it): as the sequence (P35225 35-146 limits assumed, stated change not applied) above, with G1S, R10K, M42V, S67N, H83R, L100V counted along it

B1: 13C5, murine version (antibody, from another filing, V domains shown)
VH: QVTLKESGPGILQPSQTLSLTCSFSGFSLSTSDMGVDWIRQPSGKGLEWLAHIWWDDVKRYNPALKSRLTISKDTSSSQVFLMLASVDTADTATYYCARTVSSGYIYYAMDYWGQGTSVTVSS
VL: DIQMTQTASSLSASLGDRVTISCRASQDIRNYLNWYQRKPDGTVKLLIFYTSKLHSGVPSRFSGSGSGTDYSLTIRNLEQEDIATYFCQQGNTLPLTFGGGTKLEIKR
As for B1, in assay [1], the Potency, IC50 (neutralisation of Cyno IL-13; assay not given) turned out to be 900 pM. In assay [2], this molecule displayed a Potency, IC50 (neutralisation of hIL-13v; assay not given) of 170 pM. In addition, the Potency, IC50 (neutralisation of hIL-13wt; assay not given) in assay [3] turned out to be 190 pM. Moreover, the Kd – broadly, the concentration at which binding is half-saturated – in assay [4] amounted to 76 pM; in assay [5] it was 75 pM.
